Source: PMC10846947 (Journal of Alzheimer's disease : JAD, 2022)

How the values were obtained:
[1] = mouse, in vivo
[2] = mouse, in vivo; remark: listed apart in the source
[3] = mouse, in vivo; remark: listed apart in the source
[4] = mouse, in vivo; remark: listed apart in the source
[5] = mouse, in vivo, iv

Row | Substance | PS product in the whole brain, WT versus APP/PS1 mice [1] | PS product in the whole brain, lower in APP/PS1 mice compared to WT mice [1] | decrease in PS values at 52 weeks [1] | decrease in PS values in various brain regions at 52 weeks [2] | increase in plasma AUC at 52 weeks [3] | plasma AUC of 125I-Aβ40 relative to 125I-Aβ42 [3] | decrease in PS values at various brain regions at 24 weeks [1] | increase in PS values in various brain regions at 52 weeks [2] | decrease in PS products at various brain regions at 24 weeks compared to 8 weeks [4] | decrease in brain influx clearance (Ki) at 104 weeks compared to 12 weeks [5]
1 | ^125I-Aβ40: custom synthesized amyloid-β 40 peptide, soluble form, radiolabeled with 125I by the chloramine-T procedure | no differences | ~ 1.5 fold | ~ 1.5 fold | ~ 4 fold | ~ 7 fold | ~ 12 fold |  |  |  | 
2 | ^125I-Aβ42: custom synthesized amyloid-β 42 peptide, soluble form, radiolabeled with 125I by the chloramine-T procedure | no significant differences |  |  |  |  |  | ~ 1.5 fold | ~ 1.5 fold |  | 
3 | ^125I-insulin: human insulin (Sigma-Aldrich) radiolabeled with 125I by the chloramine-T procedure |  |  |  |  |  |  |  |  | ~ 5 fold | ~ 2 fold
